Results taken from the RNAGym collection of RNA variant scans (doi:10.1021/acssynbio.7b00057).

B1: Pistol ribozyme (parent)
chain: GGGUCGUUGUUCCAUAAUCGCGUGGAUAUGGCACGCAAGUUUCUACCGGGCACCGUAAAUGUCCGACUGGAGCCGUUCGGGCGGCUAUAAACAGACCUCAGGCCCGAAGCGUGGCGGCACCUGCCGCCGGUGGUAAAAAAGAUCGGAAGAGCACACGUCU

Variants of: B1
Test: aptazyme ON/OFF ratio, guanine; higher = stronger switching; co-transcriptional cleavage with and without guanine

Variant	aptazyme ON/OFF ratio
U7G U8A G9U U10C U11G C12G	1.1
U7G U8A G9U U10G C12G C13G	1.07
U7A U8C G9A U10C U11A C12U C13U	1.18
U7A U8A G9U U10C U11C C13A	1.04
U7G U10G U11C C13G	1.07
U7C U8C G9C U10G U11C C12A C13G	1.17
U7G U8G G9A U10A U11C C12G C13A	1.13
U8C U11G C12G	1.23
U8G G9C U10G U11G C12U C13A	1.16
U7C U8G G9U C12G	1.78
U7G U8A U10A C12G C13A	1.23
U8G G9U U10G U11G C12A C13U	1.05
U7C G9A U10C U11C C12U C13U	1.07
U8A G9U U10G U11G C12G C13A	1.05
U8A G9C U10C U11G C12U C13G	1.08
U7A U8A G9C U10G U11A C12A C13G	1.12
U7G U8G G9A U10C U11A C13U	1.2
U7G G9U U11C C12A	1.61
U7G U8A U10G U11G C12U C13A	1.44
U7C U8G G9C U11C C12U C13G	1.07
U7C U8A G9C U10A C12A C13G	1.14

Variant	aptazyme ON/OFF ratio
U7C U8A G9A C13G	1.06
U7A U8A G9A U10A U11C C12G C13G	1.3
U7C U8G G9U U10G U11G C13A	1.23
U7G G9C U10A C12A C13U	1.2
U7C U8C G9A U10A U11G C13U	1.21
U7A U8A G9U U10A U11G C12A C13U	1.18
U7A U8C G9A U10C C12G C13A	1.12
U7C U8G G9U U11G C12U C13U	1.29
U7G U8G G9C U10C U11G	1.35
U7C G9C U10G C12U C13G	1.03
U7A G9A U10A C12U C13G	1.11
U7A U8C G9U U10G U11C C12G C13U	1.21
U7A U8C G9U U10G U11C C12G C13A	1.22
U8G G9A U10A U11G	1.55
U8G G9A U10A U11C	1.06
U7C U8A U10G U11C C13A	1.08
U7C U8G G9C U10A U11A C12U	1.26
U7G U8G G9A U10C U11A	2.49
U8G G9A U10C U11A C12A C13A	1.15
U8A G9U U10A U11G C12G C13A	1.1
U7G U8C G9U U10A U11C C12U C13U	1.56

Variant	aptazyme ON/OFF ratio
U8A U10A U11C C12U C13A	1.08
U7C U8C U10G U11G C12G C13G	1.11
U8G G9U U10A U11C C12G C13U	1.11
U7G U8A G9C U10G U11A C12U C13G	1.06
U7C U8A G9A U11C C12A C13A	1.15
U7G U8G G9A U10A U11A C12G C13G	1.1
U7A U8C G9U U10A U11A C12U C13G	1.12
U7G U8C G9A U10A U11A C12U	1.4
U7C U8C G9U U10C U11G C13G	1.3
U7G U8C G9C U10A U11A C12U C13G	1.09
U7A U8C G9A U11C C12U C13A	1.22
G9C U10C C12A C13A	1.03
U7G U8C U10A U11C C12U C13U	1.07
U8C G9U U10A U11G C12U C13A	1.12
U7C G9A U10C U11A C12A C13U	1.16
U7G U8A U10C U11G C13U	1.41
U8A G9U U10C U11G C12G C13G	1.11
U8G U10A C12A	1.48
U7G U8A G9C U10C U11G C12U	1.12
U7C U8A G9U U11C C12A C13G	1.07
U7A U8A G9A U10G U11A C12G	1.13

Variant	aptazyme ON/OFF ratio
U8A U10A U11C C12G C13A	1.1
U7A U8C G9C U10G U11C C12U C13A	1.12
U7G U8C G9A U10A U11A C12U C13G	1.15
U7G G9U U11A C12G C13A	1.1
U7A G9A U11G C12A C13A	1.1
U8G G9C U10C C13A	1.03
U7G U8G U10G C13U	1.39
U8A U10A C12A C13A	1.19
U8A G9U U10G U11G C13A	1.08
U7G U10G U11A C12A C13U	1.08
U7G U8A U10C U11A C12A C13G	1.23
U7C G9A U10C U11C C12A	1.34
U7C G9U U10A U11A C12G C13A	1.17
U8C G9A U10A U11A C12A C13A	1.15
G9U U10C U11G C12G	1.2
U7C U8G U10C U11C C12U	2.76
G9U U10C U11A C12A	1.47
U7C U8A G9A U10A U11A C12G C13G	1.28
U8A G9U C12G C13G	1.23
U7C G9C U11C C12G	1.04
U7A U8A G9A U11G C12U	1.69
